The record followed here is publication PMC4516795 (The Journal of Experimental Medicine, 2015).

The target of the assay is purified monomeric (gel filtered) recombinant basigin (Homo sapiens, UniProt P35613-2, strain). Description: SPR.

B1: parent anti-basigin mAb (antibody, V domains shown)
VH: EVQLQQSGPELVKTGASVKISCKASGYSFSDDYMHWVKQSHGKSLEWIGYISCYNGVPSYNQKFKGKATFTVDTSSSTAYMQFSSLTSEDSAVYYCARGGNHGFYYHAMDYWGQGTSVTVSS
VL: DIVLTQSPAILSVSPGERVSFSCRASQSIGTGIHWYQQRTNGSPRLLIKFASESISGIPSRFSGSGSGTDFTLSINSVESEDIADYFCQQSTSWPYTFGGGTKLEIK
With B1, the Kd was approximately 4 nM.

B2: recombinant chimeric anti-basigin antibody Ab-1 (antibody, V domains shown)
VH: EVQLQQSGPELVKTGASVKISCKASGYSFSDDYMHWVKQSHGKSLEWIGYISCYNGVPSYNQKFKGKATFTVDTSSSTAYMQFSSLTSEDSAVYYCARGGNHGFYYHAMDYWGQGTSVTVSS
VL: DIVLTQSPAILSVSPGERVSFSCRASQSIGTGIHWYQQRTNGSPRLLIKFASESISGIPSRFSGSGSGTDFTLSINSVESEDIADYFCQQSTSWPYTFGGGTKLEIK
Take B2: the Kd was approximately 4 nM.
